Reference: US4284553A, “Reversible method for covalent immobilization of biochemicals” (North Carolina State University at Raleigh, priority 1980, dated 1981)
Blank lines part the entries; values can stand above or below the compound they belong to.

How the values were obtained:
[1] = tested on: CCOC(=O)[C@H](Cc1ccc(O)cc1)NC(=O)c1ccccc1; experiment: purified protein, by the assay type; details: other: substrate BzTyrOEt
[2] = target: T1, α-Chymotrypsin (EC 3.4.21.1) from bovine pancreas, immobilized on thioester-derivatized glass beads (9.5 mg/g) (Bos taurus, UniProt P00766); experiment: Hydrolysis of BzTyrOEt by α-chymotrypsin immobilized on thioester-glass beads (9.5 mg/g, after brief hydroxylamine treatment); format: biochemical; parameters: unit not given here; details: substrate BzTyrOEt; immobilized (9.5 mg/g)
T1 construct: purchased Miles Laboratories or Sigma Chemical Co; host or cells: bovine pancreas
Experimental: (§1) α-Chymotrypsin (EC 3.4.21.1) from bovine pancreas was obtained as a lyophilized powder from Miles Laboratories or Sigma Chemical Co. and used without further purification. All chemicals used were reagent grade or better.
(§2) Succinamidopropyl-derivatized glass was converted to the acyl chloride derivative by treatment with anhydrous thionyl chloride. Care was taken to prevent the introduction of water in each of these reaction steps. The reacion mixture was held at 70° C. for 1 hour. The solution was then cooled to 25° C., and excess thionyl chloride was drained from the beads, which were then rinsed thoroughly with dry dichloromethane. The beads were next covered with anhydrous 3-mercaptopropionic acid and again held at 70° C. for 1 hour. Following reaction, the excess acid was drained, and the derivatized beads were again washed with dichloromethane. […]
(§3) Hydrolysis of benzoly-L-tyrosine ethyl ester (BzTyrOEt) by α-chymotrypsin was assayed according to the method of Hummel, B. C. […] Reaction was initiated by addition of soluble enzyme to the reaction mixture, and reaction progress was monitored spectrophotometrically at 256 nm. […] Initial slopes were read directly from the recorder chart and kinetic constants were evaluated using a computer program to fit data directly to velocity versus substrate concentration curves.

[3] = target: T2, α-Chymotrypsin (EC 3.4.21.1) from bovine pancreas, immobilized on thioester-derivatized glass beads (20.2 mg/g) (Bos taurus, UniProt P00766); experiment: Hydrolysis of BzTyrOEt by α-chymotrypsin immobilized on thioester-glass beads (20.2 mg/g); format: biochemical; parameters: unit not given here; details: substrate BzTyrOEt; immobilized (20.2 mg/g)
T2 construct: purchased Miles Laboratories or Sigma Chemical Co; host or cells: bovine pancreas
Experimental: as §1, §2, §3

Compound: α-Chymotrypsin (EC 3.4.21.1) from bovine pancreas, soluble enzyme released by hydroxylamine (thioacylated, about three chains per molecule) (Bos taurus)
- Km ([1]; soluble enzyme released by hydroxylamine, pH 7.0): 3.35 mM

- kcat /Km (app) [2]: 1.0
- kcat /Km (app) [3]: 0.9
Compound: CCOC(=O)[C@H](Cc1ccc(O)cc1)NC(=O)c1ccccc1 [BzTyrOEt, benzoly-L-tyrosine ethyl ester]

Compound: α-Chymotrypsin (EC 3.4.21.1) from bovine pancreas, native soluble enzyme before immobilization (Bos taurus)
- Km ([1]; soluble enzyme before immobilization): 2.74 mM
